Entries after “also recorded” stand apart in the source; their conditions may differ.
What was measured:
endogenous paxillin = test: GST pull-down of endogenous paxillin in A549 and H358 cells; format: cell-based, human; settings: anti-paxillin immunoblot
Source text: To investigate whether the biological effects of GST-R8 might be partly mediated via paxillin, we first confirmed that endogenous paxillin is expressed in cell lines A549, H358, and 293T (Figure S6A). […] As a positive control, HEK293 cells were co-transfected with a paxillin-DDK construct (OriGene) and GST-R8 (wild-type, R1544E and 2E mutants), followed by a GST pull-down assay.
Figure S6, related to figure 5. Binding of GST-talin R8 to endogenous paxillin is undetectable in A549 and H358 cells.
(A) The expression of endogenous paxillin in cell lines. Cell extracts were assayed by immunoblotting with anti-paxillin antibody.
(B) A complex of GST-talin R8 with endogenous paxillin is undetectable in A549 (top) and H358 (bottom) cells. Cells were transfected with the GST constructs indicated, and cell extracts subjected to a glutathione bead pull down assay followed by immunoblotting with anti-GST and anti-paxillin antibodies on the same membrane.
(C) Wild-type GST-talin R8 forms a complex with transfected paxillin in 293T cells. […]
G418 colony growth, soft agar growth and cell migration assays - As described previously (Qian et al., 2009), transfected A549 cells were counted, and equal numbers of cells were seeded in […]

GFP-DLC1 = test: GST pull-down of GFP-DLC1 in A549 cells; format: cell-based; settings: A549 cell extracts, anti-DLC1 immunoblot, listed as wild-type GST-R8
Source text: However, as talin R8 interacts with RIAM ([Goult et al., 2013b]) and paxillin (shown here) in addition to DLC1, we used several approaches to evaluate whether binding of talin R8 to endogenous RIAM or paxillin might have contributed to the observed results. For RIAM, the level of expression in the cell lines used here varied from very low to undetectable. To detect RIAM protein in any of the cell extracts, we had to use an anti-RIAM immunoprecipitation step followed by anti-RIAM immunoblotting. Using these conditions, endogenous RIAM was detected in A549 and H358 cells, but not in 293T cells (Figure S5A).
Figure S5, related to figure 6. […]
form a detectable complex with GST-talin R8.
(A) The expression of endogenous RIAM in cell lines. Cell extracts were subjected to immunoprecipitation followed by immunoblotting with anti-RIAM antibody.
(B) A complex between GST-talin R8 and endogenous RIAM is undetectable in A549 cells.
A549 cells were co-transfected with GFP-DLC1 and the GST constructs indicated. Cell extracts were subject to a glutathione bead pull down assay followed by immunoblotting with anti-GST and anti-RIAM antibodies on the same membrane (left). No complex between GST-talin R8 and RIAM could be detected. Under the same conditions, wild-type GST-R8 pulled-down the co-transfected GFP-DLC1; the immunoblot with anti-GST and anti-DLC1 on the same membrane is shown (right). […]

B1: GST-R8: GST-tagged talin R8, amino acids 1,453–1,580 (protein)
chain: NSQAGQQGLVEPTQFARANQAIQMACQSLGEPGCTQAQVLSAATIVAKHTSALCNSCRLASARTANPTAKRQFVQSAKEVANSTANLVKTIKALDGDFTEENRAQCRAATAPLLEAVDNLSAFASNPE
modifications: left off: GST, end not stated, kept
complex with endogenous paxillin (endogenous paxillin): insufficient to detect binding | complex with endogenous paxillin (endogenous paxillin; listed as GST-talin R8): undetectable | binding of GFP-DLC1 (GFP-DLC1): pulled-down; also recorded: did bind GFP-DLC1
